Assay results reported in IntAct's records for PubMed 40088780.

Biological target: tor1a_human TOR1A (UniProt O14656)

effect of a mutation on the interaction: decreasing interaction strength
Substance: Torsin-1A-interacting protein 2 (Homo sapiens), Q8NFQ8 R412G
